From patent publication US20240262922A1 (Merck KGaA, published 2024)
Where a chain is given by its changes, count along the chain named.

B1: 98C01 (IgG) (antibody)
heavy: not shown
light: SYELTQPPSVSVALGQTARITCGGNNIENKNVHWYQQKPGQAPVLVIYRDSNRPSGIPERFSGSNSGNTATLSINRAQAGDEADYYCQVWDSNTVVFGGGTKLTVLGQPKAAPSVTLFPPSSEELQANKATLVCLISDFYPGAVTVAWKADSSPVKAGVETTTPSKQSNNKYAASSYLSLTPEQWKSHKSYSCQVTHEGSTVEKTVAPTECS
B2: 30F02 (IgG) (antibody)
heavy: not shown
light: B1 light with E3V, P8L, E28G, N29D, Y48S, S73T, N75S, A83S, N93S, L103V
B3: 98E10 (IgG) (antibody)
heavy: not shown
light: B1 light with P8L, K38M, S73T, L103V
B4: 68F03 (IgG) (antibody)
heavy: not shown
light: B1 light with Y2F, P8L, N25I, W34Y, S51T, S73T, N75S, V96I, L103V
B5: 89B09 (IgG) (antibody)
heavy: not shown
light: SSELTQDPAVSVALGQTVRITCQGDSVRRFFAHWYQQKPGQAPILVISGKDTRPSGIPDRFSGSISGNTASLTITGAQAEDEADYYCNSRDSSGYLVLFGGGTKLTVLGQPKAAPSVTLFPPSSEELQANKATLVCLISDFYPGAVTVAWKADSSPVKAGVETTTPSKQSNNKYAASSYLSLTPEQWKSHKSYSCQVTHEGSTVEKTVAPTECS
B6: 88B06 (IgG) (antibody)
heavy: not shown
light: SYELTQPLSVSVALGQTARISCGGNNIGRKNVHWYQQKPGQAPVLVIYGDSNRPSGIPERFSGSNSGNTATLTIGRAQAGDEADYYCQVWDSSTVFGGGTKLTVLGQPKAAPSVTLFPPSSEELQANKATLVCLISDFYPGAVTVAWKADSSPVKAGVETTTPSKQSNNKYAASSYLSLTPEQWKSHKSYSCQVTHEGSTVEKTVAPTECS
B7: 95B06 (IgG) (antibody)
heavy: not shown
light: DMQMTQSPSSLSASVGDRVTITCRASQGIRNDLDWYQQKPGKVPKRLIHAASSLQSGVPSRFSGSGSGTEFTLTISSLQPEDFVTYYCLQHNTYPWTFGQGTKLEIKRTVAAPSVFIFPPSDEQLKSGTASVVCLLNNFYPREAKVQWKVDNALQSGNSQESVTEQDSKDSTYSLSSTLTLSKADYEKHKVYACEVTHQGLSSPVTKSFNRGEC
B8: 84E11 (IgG) (antibody)
heavy: not shown
light: SSELTQDPAVSVALGQTVRITCQGDSLRNYFANWYQQKPGQAPVLVIYGKNNRPSGIPDRFSGSSSGNTASLTITGAQAEDEADYYCNSRDSSGYHVVFGGGTKLTVLGQPKAAPSVTLFPPSSEELQANKATLVCLISDFYPGAVTVAWKADSSPVKAGVETTTPSKQSNNKYAASSYLSLTPEQWKSHKSYSCQVTHEGSTVEKTVAPTECS
B9: 85F10 (IgG) (antibody)
heavy: not shown
light: B1 light with P8L, Y48K, F61L, S73T, N75S, N93S
B10: 85F10 (FcFab) (antibody)
chain 1: EPKSSDKTHTCPPCPAPPVAGPSVFLFPPKPKDTLMISRTPEVTCVVVDVSHEDPEVKFNWYVDGVEVHNAKTKPREEQYNSTYRVVSVLTVLHQDWLNGKEYKCAVSNKALPSSIEKTISKAKGQPREPQVYTLPPSREEMTKNQVSLTCLVKGFYPSDIAVEWESNGQPENNYKTTPPVLDSDGSFFLYSKLTVDKSRWQQGNVFSCSVMHEALHNHYTQKSLSLSPGAGGGGSGGGGSGGGGSEVQLLESGAGLLKPSETLSLTCAVYGGSFSDYYWSWIRQPPGKGLEWIGEINHSGSTNYNPSLKSRVTISVDTSKNQFSLKLSSVTAADTAVYYCARKRGANFFDDWGQGTLVTVSSASTKGPSVFPLAPSSKSTSGGTAALGCLVKDYFPEPVTVSWNSGALTSGVHTFPAVLQSSGLYSLSSVVTVPSSSLGTQTYICNVNHKPSNTKVDKRVEPKSC
chain 2: B1 light with P8L, Y48K, F61L, S73T, N75S, N93S
B11: 85F12 (FcFab) (antibody)
chain 1: EPKSSDKTHTCPPCPAPPVAGPSVFLFPPKPKDTLMISRTPEVTCVVVDVSHEDPEVKFNWYVDGVEVHNAKTKPREEQYNSTYRVVSVLTVLHQDWLNGKEYKCAVSNKALPSSIEKTISKAKGQPREPQVYTLPPSREEMTKNQVSLTCLVKGFYPSDIAVEWESNGQPENNYKTTPPVLDSDGSFFLYSKLTVDKSRWQQGNVFSCSVMHEALHNHYTQKSLSLSPGAGGGGSGGGGSGGGGSQVQLQQSGPGLVKPSQTLSLTCAISGDSVSSNSAVWNWIRQSPSRGLEWLGRTDYRSKWNNDYAVSVKSRITINPDTSKNQFSLQLNSVTPEDTAVYYCARGDAGMASFDYWGQGTLVTVSSASTKGPSVFPLAPSSKSTSGGTAALGCLVKDYFPEPVTVSWNSGALTSGVHTFPAVLQSSGLYSLSSVVTVPSSSLGTQTYICNVNHKPSNTKVDKRVEPKSC
chain 2: SSELTQPPSVSVSPGQTASITCSGDKLGDKYACWYQQKAGQSPVVVIYQDRKRPSGIPERFSGSNSGNTATLTISGTQAMDEADYYCQTWDRRTAVFGGGTKLTVLGQPKAAPSVTLFPPSSEELQANKATLVCLISDFYPGAVTVAWKADSSPVKAGVETTTPSKQSNNKYAASSYLSLTPEQWKSHKSYSCQVTHEGSTVEKTVAPTECS
B12: 85F12 (IgG) (antibody)
heavy: not shown
light: B11 chain 2

Molecular target: T1, recombinant human OX40L protein (R&D Systems, cat. #1054-OX) (human, UniProt P23510 51-183)
T1 sequence: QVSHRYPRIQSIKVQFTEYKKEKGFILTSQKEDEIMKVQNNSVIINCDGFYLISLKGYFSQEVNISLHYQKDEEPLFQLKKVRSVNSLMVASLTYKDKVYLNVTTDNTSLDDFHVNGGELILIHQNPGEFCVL
Assay: cell-based or functional assay

Binder | Primary T cell activation assay IC50 [nM]
B1 | 12.9
B2 | 12.4
B3 | 8.8
B4 | 18.8
B5 | 10.7
B6 | 28.5
B7 | 7.4
B8 | 8.8

Molecular target: T2, AVI-GST-His6-hOX40L (human, UniProt P23510 51-183)
T2 sequence: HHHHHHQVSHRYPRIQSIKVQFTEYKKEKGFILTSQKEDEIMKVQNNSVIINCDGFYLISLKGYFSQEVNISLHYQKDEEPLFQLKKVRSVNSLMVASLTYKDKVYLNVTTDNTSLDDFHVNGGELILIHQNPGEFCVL
Assay: cell-based or functional assay

Binder | OX40L neutralization/OX40-HEK Reporter IC50 [nM]
B1 | 3.6
B9 | 54.6
B2 | 72.7
B3 | 5.4
B4 | 5.7
B5 | 4.4
B6 | 18.9
B7 | 3.7
B8 | 17.7

Molecular target: T1, recombinant human OX40L protein (R&D …)
Assay: cell-based or functional assay
Remark: another data set of the same source

Binder | Primary T cell activation assay IC50 [nM]
B10 | 6.3
B11 | > 161

Molecular target: T2, AVI-GST-His6-hOX40L
Assay: cell-based or functional assay
Remark: another data set of the same source

Binder | OX40L neutralization/OX40-HEK Reporter IC50 [nM]
B10 | > 161
B11 | > 161

Molecular target: T1, recombinant human OX40L protein (R&D …)
Assay: SPR steady state, Biacore T200; OX40L immobilised on CM5, FcFab in solution
Experimental: (§1) Recombinant OX40L proteins (human OX40L protein, R&D systems, cat. #1054-OX; cynomolgus monkey OX40L, Novoprotein cat. #CP72) were immobilized onto Biacore CM5 sensor chips and anti-OX40L antibodies were bound to this surface at a range of concentrations. The response at steady state was measured with a Biacore T200 instrument (GE Healthcare) and plotted against the concentration of antibody and fit to a 1:1 binding model. The steady state KD was determined as the antibody concentration at a response equal to half the maximal response (Rₘₐₓ).
As with the IgG clones, binding affinity to human OX40L was determined for all twelve FcFabs using steady state affinity assay as described in section 1.1.7 of Example 1. […]

Binder | Kd [nM]
B10 | 50.1
B11 | 34.1

Molecular target: T1, recombinant human OX40L protein (R&D …)
Assay: SPR steady state, Biacore T200; OX40L immobilised on CM5, antibody in solution
Experimental: as §1
Steady state affinity assay was performed as described in section 1.1.7 of Example 1.

Binder | Kd [nM]
B1 | 17.7
B9 | 28.2
B2 | 53.9
B3 | 32.8
B4 | 25.8
B5 | 31.6
B6 | 23.2
B7 | 42.4
B8 | 39.5
B12 | 75.6

Molecular target: T3, mouse OX40L (mouse, UniProt P43488 51-198, limits assumed)
T3 sequence: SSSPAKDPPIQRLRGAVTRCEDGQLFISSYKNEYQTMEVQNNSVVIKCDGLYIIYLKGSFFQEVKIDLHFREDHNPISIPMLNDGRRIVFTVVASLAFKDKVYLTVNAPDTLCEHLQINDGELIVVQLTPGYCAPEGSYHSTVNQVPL
Assay: flow cytometry on CHO-S cells / ELISA on recombinant protein (sentence does not say which)

Binder | binding result
B1 | no binding
B9 | no binding
B2 | no binding
B3 | no binding
B5 | no binding
B6 | no binding
B7 | no binding
B8 | no binding
B12 | no binding

Molecular target: T4, recombinant cynomolgus monkey OX40L (Novoprotein cat. #CP72) (cynomolgus monkey, UniProt P23510 51-183 (human entry), limits assumed)
T4 construct: Bought protein; also called cynomolgus OX40L
T4 chain: T1 sequence with R5Q, K23E
Assay: flow cytometry on CHO-S-OX40L cells / ELISA on recombinant OX40L (sentence does not say which)

Binder | binding result
B1 | binds
B9 | binds
B2 | binds
B3 | binds
B5 | binds
B6 | binds
B7 | binds
B8 | binds
B12 | binds
